Assay results reported in patent US20080107658A1 (AstraZeneca / MedImmune, published 2008).

Key:
Assay in all cases: cell-based or functional assay
[1] = target: human nerve growth factor (beta-NGF) (human, UniProt P01138 122-241)
[2] = target: rat nerve growth factor (beta-NGF) (rat, UniProt P25427 122-241)
[3] = target: mouse nerve growth factor (mouse, UniProt P01139 122-241)
mouse nerve growth factor, sequence (P01139 122-241): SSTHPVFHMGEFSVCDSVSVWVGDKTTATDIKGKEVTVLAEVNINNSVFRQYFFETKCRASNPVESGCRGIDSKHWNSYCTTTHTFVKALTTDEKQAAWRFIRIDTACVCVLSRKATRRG

rat nerve growth factor (beta-NGF), sequence (P25427 122-241): as the sequence (P01139 122-241) above, with A40G, R50K, S61P, E94D, T117A counted along it
human nerve growth factor (beta-NGF), sequence (P01138 122-241): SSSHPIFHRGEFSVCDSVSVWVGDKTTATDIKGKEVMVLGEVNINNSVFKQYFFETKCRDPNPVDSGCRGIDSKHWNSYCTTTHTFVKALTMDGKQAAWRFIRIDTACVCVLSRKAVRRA

IC50, FLIPR calcium mobilisation [1] [nM]	IC50, TF-1 cell proliferation [1] [nM]	IC50, FLIPR calcium mobilisation [2] [nM]	IC50, TF-1 cell proliferation [2] [nM]	IC50, FLIPR calcium mobilisation [3] [nM]	IC50, TF-1 cell proliferation [3] [nM]	Binder	IC50, PC12 cell survival [1] [nM]	IC50, PC12 cell survival [2] [nM]
0.45	0.1	0.3	0.12	0.28	0.1	1133C11 human IgG4 (antibody, V domains shown) VH: EVQLVQSGAEVKKPGSSVKVSCKASGGTFSTYGISWVRQAPGQGLEWIGGIIPIFDTGNSAQSFQGRVTITADESTSTAYMEVSSLRSDDTAVYYCASSSRIYDLNPSLTAYYDMDVWGQGTMVTVSS VL: QAVLTQPSSVSTPPGQKVTISCSGSSSNIGNNYVSWYQQLPGTAPKLLIYDNNKRPSGIPDRFSGSKSGTSATLGITGLQTGDEADYYCGTWDSSLSAWVFGGGTKLTVL	0.53	0.42
0.33	–	0.13	–	0.12	–	1160E3 human IgG4 (antibody, V domains shown) VH: EVQLVQSGAEVKKPGSSAKVSCKASGGTFSTYGISWVRQAPGQGLEWIGGIIPIFDTGNSAQSFQGRVTITADESTSTAYMEVSSLRSDDTAVYYCASSSRIYDLNPSLTAYYDMDVWGQGTMVTVSS VL: QAVLTQPSSVSTPPGQKVTISCSGSNSNIGNNYVSWYQQLPGTAPKLLIYDNNKRPSGIPDRFSGSKSGTSATLGITGLQTGDEADYYCGTWDSSLSAWVFGGGTKLTV	0.4	–
0.35	–	0.18	–	0.18	–	1155H1 human IgG4 (antibody, V domains shown) VH: EVQLVQSGAEVKKPGSSVKVSCKASGGTFSTYGISWVRQAPGQGLEWIGGIIPIFDTGNSAQSFQGRVTITADESTSTAYMEVSSLRSDDTAVYYCASSSRIYDFHLANKGYYDMDVWGQGTMVTVSS VL: QAVLTQPSSVSTPPGQKATISCSGSSSNIGNNYVSWYQQLPGTAPKLLIYDNNKRPSGIPDRFSGSKSGTSATLDITGLQTGDEADYYCGTWDSSLSAWVFGGGTKLTVL	0.59	–
0.34	–	0.12	–	0.11	–	1158A1 human IgG4 (antibody, V domains shown) VH: EVQLVQSGAEVKKPGSSVKVSCKASGGTFSTYGISWVRQAPGQGLEWIGGIIPIFGTGNSAQSFQGRVTITADESTSTAYMEVSSLRSDDTAVYYCASSSRIYDHHNHVGGYYDMDVWGQGTMVTVSS VL: QAVLTQPSSVSTPPGQKVTISCSGSSSNIGNNYASWYQQLPGTAPKLLIYDNNKRPSGIPDRFSGSKSGTSATLGITGLQTGDEADYYCGTWDGSLSAWVFGGGTKLTVL	0.48	–
0.26	–	0.15	–	0.16	–	1165D4 human IgG4 (antibody, V domains shown) VH: EVQLVQSGAEVKKPGSSVKVSCKASGGTFSTYGISWVRQAPGQGLEWIGGIIPIFDTGNSAQSFQGRVTITADESTSTAYMEVSSLRSDDTAVYYCASSSRIYDLNPSLTAYYDMDVWGQGTMVTVSS VL: QAVLTQPSSVSTPPGQKVTISCSGSSSNIENNYVSWYQQLPGTAPKLLIYDNNKRPSGIPDRFSGSKSGTSATLGITGLQTGDEADYYCGTWDSSLSAWVFGGGTKLTVL	0.41	0.41
0.22	0.26	0.21	0.08	0.14	0.07	1152H5 human IgG4 (antibody, V domains shown) VH: EVQLVQSGAEVKKPGSSVKVSCKASGGTFSTYGISWVRQAPGQGLVWIGGIIPIFDTGNSAQSFQGRVTITADESTSTAYMEVSSLRSDDTAVYYCASSSRIYDMISSLQPYYDMDVWGQGTMVTVSS VL: QAVLTQPSSVSTPPGQKATISCSGSSSNIGNNYVSWYQQLPGTAPKLLIYDNNKRPSGIPDRFSGSKSGTSATLGITGLQTGDEADYYCGTWDSSLSAWVFGGGTKLTVL	0.4	0.38
